# Results from patent publication US20180009871A1 (INTARCIA THERAPEUTICS, published 2018).
# Where no end group is shown, it is not given here. [ ]: non-standard residue; d: D form. Aib = CC(C)(N)C(=O)O
# How the values were obtained:
# Assay in all cases: cell-based or functional assay
# [1] = biological target: human glucagon receptor (GCGR) (human, UniProt P47871 26-477)
# [2] = biological target: human GLP-1 receptor (GLP-1R) (human, UniProt P43220 24-463)
# Target sequence in this assay (P43220 24-463): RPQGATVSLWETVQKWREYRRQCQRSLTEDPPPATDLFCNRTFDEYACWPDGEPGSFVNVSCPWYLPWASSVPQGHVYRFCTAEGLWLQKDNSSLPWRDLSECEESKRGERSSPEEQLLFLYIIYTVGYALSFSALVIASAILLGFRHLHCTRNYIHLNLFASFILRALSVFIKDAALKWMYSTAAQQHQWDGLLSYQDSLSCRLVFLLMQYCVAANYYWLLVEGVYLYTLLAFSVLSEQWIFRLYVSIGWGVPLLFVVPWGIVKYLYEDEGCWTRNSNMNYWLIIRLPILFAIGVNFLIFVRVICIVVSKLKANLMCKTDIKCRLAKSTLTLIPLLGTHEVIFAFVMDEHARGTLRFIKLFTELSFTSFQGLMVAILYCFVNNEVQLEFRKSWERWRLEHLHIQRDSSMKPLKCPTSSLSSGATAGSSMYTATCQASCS
# [3] = biological target: human glucagon receptor (GCGR) (human, UniProt P47871 26-477); remark: listed apart in the source
# [4] = biological target: human GLP-1 receptor (GLP-1R) (human, UniProt P43220 24-463); remark: listed apart in the source
# Target sequence in this assay (P43220 24-463): as above
Binder,hGCGR pEC50 (cAMP) mean (n = 3): 11 point curve starting at 1 nM [1] [pEC50],hGLP1 pEC50 (cAMP) mean (n = 3): 11 point curve starting at 1 nM [2] [pEC50],hGCGR pEC50 (cAMP) [3] [pEC50],hGLP1 pEC50 (cAMP) [4] [pEC50]
YSHGTFTSDYSKYLDAARAQEFVKWLEDEPSSGAPPPS-OH [Compound A97],12.3,< 9,–,–
YSQGTFTSDYSKYLDSARAQEFVKWLEDEPKSKSPPPS [Compound A81],–,–,11,< 9
YSQGTFTSDYSKYLDSARAQEFVKWLEDEPKSKAPPPS [Compound A82],–,–,11,< 9
YSHGTFTSDYSKYLDSARAQEFVKHLEDEPKSKSPPPS [Compound A84],–,–,9.4,< 9
YSHGTFTSDYSKYLDSARAQEFTKWLEDEPKSKSPPPS [Compound A83],–,–,10.2,< 9
WSQGTFTSDYSKYLD[Aib]KRAQEFV[Aib]WLEDEPSSGKPPPS [Compound A91],–,–,12.8,< 9
YSHGTFTSDYTRLLESKRAQEFVKWLEDEPSSGAPPPS-OH [Compound A98],12.2,< 9,–,–
YSHGTFTSDYSKYLD[Aib]KAAQEFV[Aib]WLEDEPSSGKPPPS [Compound A90],–,–,13.1,< 9
YSHGTFTSDYSKYLD[Aib]KRAQEFV[Aib]HLEDEPSSGKPPPS [Compound A89],–,–,12.7,< 9
YSHGTFTSDYSKYLD[Aib]KRAQEFV[Aib]WLEDEPSSGKKPPS [Compound A88],–,–,13.8,< 9
YSQGTFTSDYSKYLD[Aib]KAAQEFV[Aib]WLEDEPSSGAPPPS [Compound A95],–,–,13.3,< 9
YSQGTFTSDYSKYLD[Aib]KRAQEFV[Aib]WLEDEPSSGKPPPS [Compound A86],–,–,13.3,< 9
WSQGTFTSDYSKYLD[Aib]KAAQEFV[Aib]WLEDEPSSGAPPPS [Compound A92],–,–,10.7,< 9
YSHGTFTSDYSKYLD[Aib]KRAQEFV[Aib]WLEDEPSSGAPPPS-OH (N-terminus assumed; SMILES CC(C)C[C@H](NC(=O)[C@H](Cc1ccc(O)cc1)NC(=O)[C@H](CCCCN)NC(=O)[C@H](CO)NC(=O)[C@H](Cc1ccc(O)cc1)NC(=O)[C@H](CC(=O)O)NC(=O)[C@H](CO)NC(=O)[C@@H](NC(=O)[C@H](Cc1ccccc1)NC(=O)[C@@H](NC(=O)CNC(=O)[C@H](Cc1c[nH]cn1)NC(=O)[C@H](CO)NC(=O)[C@@H](N)Cc1ccc(O)cc1)[C@@H](C)O)[C@@H](C)O)C(=O)N[C@@H](CC(=O)O)C(=O)NC(C)(C)C(=O)N[C@@H](CCCCN)C(=O)N[C@@H](CCCNC(=N)N)C(=O)N[C@@H](C)C(=O)N[C@@H](CCC(N)=O)C(=O)N[C@@H](CCC(=O)O)C(=O)N[C@@H](Cc1ccccc1)C(=O)N[C@H](C(=O)NC(C)(C)C(=O)N[C@@H](Cc1c[nH]c2ccccc12)C(=O)N[C@@H](CC(C)C)C(=O)N[C@@H](CCC(=O)O)C(=O)N[C@@H](CC(=O)O)C(=O)N[C@@H](CCC(=O)O)C(=O)N1CCC[C@H]1C(=O)N[C@@H](CO)C(=O)N[C@@H](CO)C(=O)NCC(=O)N[C@@H](C)C(=O)N1CCC[C@H]1C(=O)N1CCC[C@H]1C(=O)N1CCC[C@H]1C(=O)N[C@@H](CO)C(=O)O)C(C)C) [Compound A99],12.5,< 9,–,–
YSQGTFTSDYSKYLD[Aib]KAAQEFV[Aib]WLEDEPSSGKPPPS [Compound A96],–,–,13,< 9
YSHGTFTSDYSKYLD[Aib]ARAQEFV[Aib]WLEDEPSSGAPPPS-OH (N-terminus assumed; SMILES CC(C)C[C@H](NC(=O)[C@H](Cc1ccc(O)cc1)NC(=O)[C@H](CCCCN)NC(=O)[C@H](CO)NC(=O)[C@H](Cc1ccc(O)cc1)NC(=O)[C@H](CC(=O)O)NC(=O)[C@H](CO)NC(=O)[C@@H](NC(=O)[C@H](Cc1ccccc1)NC(=O)[C@@H](NC(=O)CNC(=O)[C@H](Cc1c[nH]cn1)NC(=O)[C@H](CO)NC(=O)[C@@H](N)Cc1ccc(O)cc1)[C@@H](C)O)[C@@H](C)O)C(=O)N[C@@H](CC(=O)O)C(=O)NC(C)(C)C(=O)N[C@@H](C)C(=O)N[C@@H](CCCNC(=N)N)C(=O)N[C@@H](C)C(=O)N[C@@H](CCC(N)=O)C(=O)N[C@@H](CCC(=O)O)C(=O)N[C@@H](Cc1ccccc1)C(=O)N[C@H](C(=O)NC(C)(C)C(=O)N[C@@H](Cc1c[nH]c2ccccc12)C(=O)N[C@@H](CC(C)C)C(=O)N[C@@H](CCC(=O)O)C(=O)N[C@@H](CC(=O)O)C(=O)N[C@@H](CCC(=O)O)C(=O)N1CCC[C@H]1C(=O)N[C@@H](CO)C(=O)N[C@@H](CO)C(=O)NCC(=O)N[C@@H](C)C(=O)N1CCC[C@H]1C(=O)N1CCC[C@H]1C(=O)N1CCC[C@H]1C(=O)N[C@@H](CO)C(=O)O)C(C)C) [Compound A103],–,–,–,< 9
WSQGTFTSDYSKYLD[Aib]KAAQEFV[Aib]WLEDEPSSGKPPPS [Compound A93],–,–,10.9,< 9
YSHGTFTSDYSKWLD[Aib]KRAQEFVKWLEDE-OH (N-terminus assumed; SMILES CC(C)C[C@H](NC(=O)[C@H](Cc1c[nH]c2ccccc12)NC(=O)[C@H](CCCCN)NC(=O)[C@@H](NC(=O)[C@H](Cc1ccccc1)NC(=O)[C@H](CCC(=O)O)NC(=O)[C@H](CCC(N)=O)NC(=O)[C@H](C)NC(=O)[C@H](CCCNC(=N)N)NC(=O)[C@H](CCCCN)NC(=O)C(C)(C)NC(=O)[C@H](CC(=O)O)NC(=O)[C@H](CC(C)C)NC(=O)[C@H](Cc1c[nH]c2ccccc12)NC(=O)[C@H](CCCCN)NC(=O)[C@H](CO)NC(=O)[C@H](Cc1ccc(O)cc1)NC(=O)[C@H](CC(=O)O)NC(=O)[C@H](CO)NC(=O)[C@@H](NC(=O)[C@H](Cc1ccccc1)NC(=O)[C@@H](NC(=O)CNC(=O)[C@H](Cc1c[nH]cn1)NC(=O)[C@H](CO)NC(=O)[C@@H](N)Cc1ccc(O)cc1)[C@@H](C)O)[C@@H](C)O)C(C)C)C(=O)N[C@@H](CCC(=O)O)C(=O)N[C@@H](CC(=O)O)C(=O)N[C@@H](CCC(=O)O)C(=O)O) [Compound A102],–,–,–,< 9
YSQGTFTSDYSKYLD[Aib]KRAQEFV[Aib]WLEDEPSSGAPPPS [Compound A94],–,–,14.1,< 9
YSHGTFTSDYSKYLD[Aib]KRAQEFV[Aib]WLEDEPSSGKPPPS-NH2 (N-terminus assumed; SMILES CC(C)C[C@H](NC(=O)[C@H](Cc1ccc(O)cc1)NC(=O)[C@H](CCCCN)NC(=O)[C@H](CO)NC(=O)[C@H](Cc1ccc(O)cc1)NC(=O)[C@H](CC(=O)O)NC(=O)[C@H](CO)NC(=O)[C@@H](NC(=O)[C@H](Cc1ccccc1)NC(=O)[C@@H](NC(=O)CNC(=O)[C@H](Cc1c[nH]cn1)NC(=O)[C@H](CO)NC(=O)[C@@H](N)Cc1ccc(O)cc1)[C@@H](C)O)[C@@H](C)O)C(=O)N[C@@H](CC(=O)O)C(=O)NC(C)(C)C(=O)N[C@@H](CCCCN)C(=O)N[C@@H](CCCNC(=N)N)C(=O)N[C@@H](C)C(=O)N[C@@H](CCC(N)=O)C(=O)N[C@@H](CCC(=O)O)C(=O)N[C@@H](Cc1ccccc1)C(=O)N[C@H](C(=O)NC(C)(C)C(=O)N[C@@H](Cc1c[nH]c2ccccc12)C(=O)N[C@@H](CC(C)C)C(=O)N[C@@H](CCC(=O)O)C(=O)N[C@@H](CC(=O)O)C(=O)N[C@@H](CCC(=O)O)C(=O)N1CCC[C@H]1C(=O)N[C@@H](CO)C(=O)N[C@@H](CO)C(=O)NCC(=O)N[C@@H](CCCCN)C(=O)N1CCC[C@H]1C(=O)N1CCC[C@H]1C(=O)N1CCC[C@H]1C(=O)N[C@@H](CO)C(N)=O)C(C)C) [Compound A85],–,–,13.6,< 9
YSHGTFTSDYSKYLDAARAQEFVKWLEDEPKSKSPPPS-NH2 [Compound A80],–,–,12.5,< 9
YSHGTFTSDYSKYLD[Aib]KRAQEFV[Aib]WLEDEKSSGKPPPS [Compound A87],–,–,13.6,< 9
